Experimental data as given in patent publication US20230227537A1.
Several values for one entry are separate records, joined by “and”; a condition that tells them apart may be missing. Equal entries are not always repeated.

Experiments:
[1] = target: GD-Pangolin RBD displayed on S. cerevisiae (GD-Pangolin coronavirus)
[2] = target: SARS-Cov-1 RBD displayed on S. cerevisiae
[3] = target: WIV1 RBD displayed on S. cerevisiae (WIV1 (bat sarbecovirus)); test: flow cytometry, S. cerevisiae displaying the RBD, AF633 anti-human IgG [WIV1]
[4] = target: LYRa11 RBD displayed on S. cerevisiae (bat SARS-related coronavirus LYRa11); test: flow cytometry, S. cerevisiae displaying the RBD, AF633 anti-human IgG [LYRa11]
[5] = target: RaTG13 RBD displayed on S. cerevisiae (bat coronavirus RaTG13); test: flow cytometry, S. cerevisiae displaying the RBD, AF633 anti-human IgG [RaTG13]
[6] = target: WIV1-CoV RBD (WIV1-CoV (bat))
[7] = target: WIV1-CoV RBD (WIV1-CoV (bat)); test: SPR, His-tagged VHH on NTA chip, RBD as analyte
[8] = target: Mouse IgG1 Fc fused SARS-CoV-2 RBD (Sino Biological) (SARS-CoV-2; mouse) (UniProt P0DTC2)

**Q.** S309 antibody was tested. Which EC50 (read off the curve) [1] did it give?
**A.** The EC50 (read off the curve) was 1 µg/mL.

**Q.** What about the EC50 (read off the curve) [2] of the same substance?
**A.** The EC50 (read off the curve) was 0.5 µg/mL.

**Q.** What about the EC50 (read off the curve) [3] of the same substance?
**A.** The EC50 (read off the curve) was 0.7 µg/mL.

**Q.** What about the EC50 (read off the curve) [4] of the same substance?
**A.** Its EC50 (read off the curve) is 0.8 µg/mL.

**Q.** And the EC50 (read off the curve) [5]?
**A.** Its EC50 (read off the curve) is 0.8 µg/mL.

**Q.** SARS VHH-72 was tested. Which koff [6] did it give?
**A.** Its koff is 0.0026 s⁻¹.

**Q.** What about the kon [6] of the same substance?
**A.** Its kon is 349000 M⁻¹ s⁻¹.

**Q.** What about the Kd [7] of the same substance?
**A.** The Kd was 7.47 nM.

**Q.** Which results are given for “VHH72-W52aH-hIgG1 Fc (P. pastoris supernatant) (Fc fusion)”?
**A.** % Signal decrease over 8 min dissociation [8]: 49% and 51%; Kd [8]: 120 nM and 92.2 nM
